Source: US20220204603A1 (PHARMABCINE, published 2022)
Changes are numbered by the printed parent chain.

Key:
[1] = target: T1, mouse Ang2 (construct not stated) (mouse, UniProt O35608 19-496, limits assumed); test: SPR Biacore T200, antibody captured on protein A chip, Ang2 as analyte, 1:1 model
T1 construct: also called mAng2
T1 sequence (looked up): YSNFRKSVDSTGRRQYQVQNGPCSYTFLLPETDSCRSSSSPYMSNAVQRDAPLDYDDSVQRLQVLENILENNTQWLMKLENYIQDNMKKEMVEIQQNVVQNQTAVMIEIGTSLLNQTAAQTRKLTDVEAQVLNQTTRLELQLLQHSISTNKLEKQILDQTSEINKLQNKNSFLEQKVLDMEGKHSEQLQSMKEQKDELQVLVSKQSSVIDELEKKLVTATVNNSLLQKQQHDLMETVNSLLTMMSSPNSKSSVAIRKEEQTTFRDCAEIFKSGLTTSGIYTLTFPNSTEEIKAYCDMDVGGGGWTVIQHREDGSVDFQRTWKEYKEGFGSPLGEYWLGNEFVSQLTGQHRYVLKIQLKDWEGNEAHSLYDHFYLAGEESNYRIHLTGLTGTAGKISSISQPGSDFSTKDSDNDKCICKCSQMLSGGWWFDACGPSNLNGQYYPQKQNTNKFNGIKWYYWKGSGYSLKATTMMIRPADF
Description: To analyze the binding affinity of the selected anti-Ang2 antibodies, affinity analysis for human Ang2 and mouse Ang2 was performed using BIACORE® T200 (GE Healthcare). A protein A sensor chip was used, and an experiment was conducted in accordance with the manufacturer's manual. Detailed analysis conditions are as follows. 2000 response units (RU) of protein A were immobilized, 25 RU of anti-Ang2 antibody candidates were used for binding, and various concentrations of human Ang2 and mouse Ang2 were allowed to bind. The starting concentrations for analysis are 100 nM and 150 nM, respectively. The analysis proceeded at a flow rate of 30 μl/min, the binding and dissociation time of human Ang2 was measured as 300 seconds and 2000 seconds, respectively, and the binding and dissociation time of mouse Ang2 was analyzed as 300 seconds and 1000 seconds, respectively. Analysis was performed using a 1:1 binding model as an analytical model.

[2] = target: T1, mouse Ang2 (construct not stated); test: competition ELISA: antibody preincubated with mAng2, binding to coated mouse Tie2-Fc
[3] = target: hAng2-Fc (PharmAbcine) (human) (UniProt O15123); test: phage ELISA, antigen coated at 1 µg/ml, anti-M13-HRP
[4] = target: T2, Ang2 immobilized on a biosensor (Octet off-rate screening) (Homo sapiens (Human), UniProt O15123 19-496); test: Octet (BLI), Ang2 immobilized on biosensor, scFv in solution
T2 construct: also called Ang2 antigen; not shown: It is a His tag if hAng2-his (R&D 623-AN/CF) was used, or an Fc if hAng2-Fc (PharmAbcine) was used
T2 sequence: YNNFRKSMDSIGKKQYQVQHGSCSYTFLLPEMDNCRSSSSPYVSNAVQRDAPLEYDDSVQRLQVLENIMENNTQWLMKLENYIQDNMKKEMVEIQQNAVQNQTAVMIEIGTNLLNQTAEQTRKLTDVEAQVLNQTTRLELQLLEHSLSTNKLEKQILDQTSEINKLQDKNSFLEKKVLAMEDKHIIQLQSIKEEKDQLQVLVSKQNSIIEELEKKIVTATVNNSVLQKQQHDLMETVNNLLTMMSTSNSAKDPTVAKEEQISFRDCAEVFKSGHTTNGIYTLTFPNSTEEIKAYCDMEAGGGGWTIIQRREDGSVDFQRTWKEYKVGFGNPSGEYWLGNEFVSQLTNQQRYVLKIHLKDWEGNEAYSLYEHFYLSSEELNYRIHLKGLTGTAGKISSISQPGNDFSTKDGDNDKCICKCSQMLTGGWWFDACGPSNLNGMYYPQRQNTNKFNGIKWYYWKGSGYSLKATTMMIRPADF

[5] = target: T3, mAng1-Fc (PharmAbcine) (mouse, UniProt O08538 20-498, limits assumed); test: phage ELISA, antigen coated at 1 µg/ml, anti-M13-HRP
T3 construct: In-house (PharmAbcine) Fc fusion; not shown: Fc part
T3 sequence (looked up): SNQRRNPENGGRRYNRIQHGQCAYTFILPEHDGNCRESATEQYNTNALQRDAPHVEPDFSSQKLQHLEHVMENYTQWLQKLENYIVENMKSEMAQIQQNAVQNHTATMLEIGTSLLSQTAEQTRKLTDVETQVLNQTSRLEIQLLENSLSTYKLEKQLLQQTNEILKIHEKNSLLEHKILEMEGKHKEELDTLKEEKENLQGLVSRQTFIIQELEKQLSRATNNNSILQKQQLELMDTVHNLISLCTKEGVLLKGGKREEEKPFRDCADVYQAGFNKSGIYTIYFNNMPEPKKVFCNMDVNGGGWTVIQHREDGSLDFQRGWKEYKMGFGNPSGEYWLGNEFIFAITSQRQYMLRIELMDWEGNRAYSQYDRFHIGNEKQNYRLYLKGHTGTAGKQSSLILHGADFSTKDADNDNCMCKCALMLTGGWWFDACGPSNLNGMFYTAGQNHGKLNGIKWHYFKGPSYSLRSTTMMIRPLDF

[6] = target: T2, Ang2 immobilized on a biosensor (Octet …); test: dissociation rate screening of optimized clones (method as in Example 3, Octet; not restated)
[7] = target: human Ang2 (construct not stated) (human) (UniProt O15123); test: Octet (BLI), scFv immobilized on biosensor, human Ang2 in solution

nesvacumab (antibody)
Kd [1]: 0.262 nM
koff [1]: 5.51e-05 s⁻¹
kon [1]: 210000 M⁻¹ s⁻¹
IC50 [2]: 10.4 nM

B1: No. 3 monoclonal scFv phage (scFv, V domains shown, not shown: large carriers)
VH: QMQLVQSGGGLVQPGRSLKLSCAASGFSFDDYAMHWVRQAPGKGLEWVATIKDDGSQTYYVDSVKGRFTISRDNAKSSLFLQMNSLRAEDTAVYYCTTEGLMNGLHFDMWGQGTMVTVSS
VL: LVLTQPPSVSGAPGQGVTISCTGSSSNIGAGYDVHWYQQFPGTAPKLLISGNNNRPSGLPDRFSGSKSGTSASLAITGLQAEDEADYYCQSYDSRLGVVFGGGTKLTVLG
modifications: scFv linker; phage coat protein fusion
OD [3]: 1.9 OD

B2: No. 3 candidate antibody expressed in the form of scFv (scFv, V domains shown)
VH: B1 VH
VL: B1 VL
koff [4]: 0.000642 s⁻¹

B3: No. 46 monoclonal scFv phage (scFv, V domains shown, not shown: large carriers)
VH: QVQLVESGGGLVQPGRSLRLSCAASGFTFDDCAMHWVRQAPGKGLEWVSGISGNSKNVAYADSVKGRFSISRDDAKNSLYLQMNSLRAEDTAVYYCARDPAYSQFDYWGQGTLITVSS
VL: QSALTQPPSLSATPGQRVTISCSGSSSNVGGYPVNWYQQVPGAAPKLLMYTDYKRPSGVPDRFFGSKSGTSASLAISGLQSEDEADYYCATWDDNLNGYVFGTGTKVTVLG
modifications: scFv linker; phage coat protein fusion
OD [3]: 1.19 OD

B4: No. 46 candidate antibody expressed in the form of scFv (scFv, V domains shown)
VH: B3 VH
VL: B3 VL
koff [4]: 6.14e-05 s⁻¹

B5: No. 41 monoclonal scFv phage (scFv)
chain: QVQLVESGGGLVQPGGSLRLSCEASGFAFGRYEMNWVRQAPGKGLEWIAYIDTGGGAKVYADSVKGRFTISRDDSKNSLYLQMNSLRAEDTAVYYCTTEGLMNGLHFDMWGQGTMITVSSDIQMTQSPSTLSASVGDRVAITCRASQAISTWLAWYQQKPGKAPKLLIYTASTLESGVPSRFSGSGSGTDFTLTINSLQPDDFATYYCQQLNSYPYTFGGGTKVEIKR
OD [5]: 0.111 OD

B6: No. O10 optimized clone (screening of scFv phage library of No. 8 CDR3 variants) (scFv, V domains shown)
VH: QVQLVESGGGLVKPGGSLRLSCAASGFTFSSYSMNWVRQAPGKGLEWVSSISASDGATYYADSVRGRFTISRDNSRSTLYLQMNSLRAEDTAVYYCAKILVGYSGPMGGMDVWGQGTTVTVSS
VL: DIQMTQSPSSLSASVGDRVTITCRASRDISNYLAWYQQKPGKAPKSLIYGASNLQSGVSSQFSGSGSGTDFTLTINSLQPEDSATYYCQQYYSYPLTFGGGTKVDIKR
koff [6]: 3.92e-05 s⁻¹

B7: No. 4 monoclonal scFv phage (scFv)
chain: QVQLVESGAEVKRPGESLRISCKTSGYSFTSYWIHWVRQMPGKELEWMGSIYPGNSDTRYSPSFQGHVTISADSSSSTAYLQWSSLKASDTAMYYCTTEGLMNGLHFDMWGQGTMVTVSSDIVMTQTPLSLPVTPGEPASISCRSSQSLLHSLGDNYLDWYLQKPGQSPQLLIYLGSKRAAGVPDRFSGSGSGTDFTLKISRVEAEDVGVYYCMQSLQTPPYTFGQGTKLEIKR
OD [3]: 0.835 OD
OD [5]: 0.093 OD

B8: No. 41 monoclonal scFv phage (scFv, V domains shown, not shown: large carriers)
VH: QVQLVESGGGLVQPGGSLRLSCEASGFAFGRYEMNWVRQAPGKGLEWIAYIDTGGGAKVYADSVKGRFTISRDDSKNSLYLQMNSLRAEDTAVYYCTTEGLMNGLHFDMWGQGTMITVSS
VL: DIQMTQSPSTLSASVGDRVAITCRASQAISTWLAWYQQKPGKAPKLLIYTASTLESGVPSRFSGSGSGTDFTLTINSLQPDDFATYYCQQLNSYPYTFGGGTKVEIKR
modifications: scFv linker; phage coat protein fusion
OD [3]: 0.825 OD

B9: No. 41 candidate antibody expressed in the form of scFv (scFv, V domains shown)
VH: B8 VH
VL: B8 VL
koff [4]: 1.08e-05 s⁻¹

B10: No. 4 candidate antibody expressed in the form of scFv (scFv, V domains shown)
VH: QVQLVESGAEVKRPGESLRISCKTSGYSFTSYWIHWVRQMPGKELEWMGSIYPGNSDTRYSPSFQGHVTISADSSSSTAYLQWSSLKASDTAMYYCTTEGLMNGLHFDMWGQGTMVTVSS
VL: DIVMTQTPLSLPVTPGEPASISCRSSQSLLHSLGDNYLDWYLQKPGQSPQLLIYLGSKRAAGVPDRFSGSGSGTDFTLKISRVEAEDVGVYYCMQSLQTPPYTFGQGTKLEIKR
koff [4]: 0.000212 s⁻¹

B11: No. 8 monoclonal scFv phage (scFv)
chain: QVQLVESGGGLVKPGGSLRLSCAASGFTFSSYSMNWVRQAPGKGLEWVSSISASDGATYYADSVRGRFTISRDNSRSTLYLQMNSLRAEDTAVYYCAKILAGYSGPMGGMDVWGQGTTVTVSSDIQMTQSPSSLSASVGDRVTITCRASRDISNYLAWYQQKPGKAPKSLIYGASNLQSGVSSQFSGSGSGTDFTLTINSLQPEDSATYYCQQYYSYPLTFGGGTKVDIKR
OD [3]: 1.36 OD
OD [5]: 0.199 OD

B12: No. 8 candidate antibody expressed in the form of scFv (scFv)
chain: B11 chain
koff [4]: < 1e-07 s⁻¹

B13: No. O4 scFv, optimized anti-Ang2 scFv antibody expressed in E. coli (pET-22b), refolded and purified (scFv, part only; not given: scFv linker and His tag, not shown: small tags and cut ends)
scFv, part: B11 chain with I99T
Kd [7]: 0.28 nM
koff [7]: 2.54e-05 s⁻¹
kon [7]: 94000 M⁻¹ s⁻¹

B14: No. 46 monoclonal scFv phage (scFv)
chain: QVQLVESGGGLVQPGRSLRLSCAASGFTFDDCAMHWVRQAPGKGLEWVSGISGNSKNVAYADSVKGRFSISRDDAKNSLYLQMNSLRAEDTAVYYCARDPAYSQFDYWGQGTLITVSSQSALTQPPSLSATPGQRVTISCSGSSSNVGGYPVNWYQQVPGAAPKLLMYTDYKRPSGVPDRFFGSKSGTSASLAISGLQSEDEADYYCATWDDNLNGYVFGTGTKVTVLG
OD [5]: 0.061 OD
